Reference: paper PMC11959585

Tests used:
[1] = molecular target: His-tagged transcriptional activation domain of the tumor suppressor protein p53 (UniProt P04637); assay: solution-phase LSPR peak shift of nanoparticles (UV–vis); hTAD ([…]) immobilised by its His-tag on NTA-Ni AgDNP@Au nanobiosensors (~0.025 nM), NCBD (0.27 μM) added; 10 mM Tris, 10 mM NaCl, 0.025 wt % Tween 20, pH 7.5; nanoparticles aggregated after several minutes
[2] = molecular target: His-tagged transcriptional activation domain of the tumor suppressor protein p53 (UniProt P04637); assay: solution-phase LSPR peak shift of nanoparticles (UV–vis); hTAD ([…]) immobilised by its His-tag on NTA-Ni AgDNP@Au nanobiosensors (~0.025 nM), NCBD (0.27 μM) added; 10 mM Tris, 30 mM NaCl, 0.025 wt % Tween 20, pH 7.5; near equilibrium (25 min)
[3] = molecular target: His-tagged transcriptional activation domain of the tumor suppressor protein p53 (UniProt P04637); assay: solution-phase LSPR peak shift of nanoparticles (UV–vis); hTAD ([…]) immobilised by its His-tag on NTA-Ni AgDNP@Au nanobiosensors (~0.025 nM), NCBD (0.27 μM) or BSA ([…]) added; 10 mM Tris, 150 mM NaCl, 0.025 wt % Tween 20, pH 7.5; near equilibrium (25 min)
[4] = molecular target: PEX14 16-80 (Homo sapiens) (UniProt O75381); assay: SPR; conditions: cited from earlier work
Sequence of PEX14 16-80 (Homo sapiens) (O75381 16-80): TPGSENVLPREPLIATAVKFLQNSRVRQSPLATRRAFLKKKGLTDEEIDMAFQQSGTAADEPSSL

[5] = molecular target: PEX14 16-80 (Homo sapiens) (UniProt O75381); assay: ITC; conditions: cited from earlier work

Sequence of His-tagged transcriptional activation domain of the tumor suppressor protein p53 (P04637 whole entry, the tested form may be a part): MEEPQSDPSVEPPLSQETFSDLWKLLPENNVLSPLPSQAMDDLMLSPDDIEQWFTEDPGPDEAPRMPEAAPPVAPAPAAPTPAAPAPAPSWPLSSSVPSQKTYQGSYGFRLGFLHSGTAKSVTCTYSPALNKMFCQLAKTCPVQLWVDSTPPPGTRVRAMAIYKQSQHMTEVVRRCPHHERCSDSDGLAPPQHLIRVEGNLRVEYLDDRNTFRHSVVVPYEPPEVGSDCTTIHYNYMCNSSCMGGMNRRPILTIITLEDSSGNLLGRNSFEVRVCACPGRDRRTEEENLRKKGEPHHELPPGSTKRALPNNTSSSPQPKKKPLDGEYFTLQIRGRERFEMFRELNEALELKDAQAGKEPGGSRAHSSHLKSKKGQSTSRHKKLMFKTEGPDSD

| LSPR peak redshift after addition of NCBD (10 mM NaCl) [1] | second LSPR peak redshift (30 mM NaCl) [2] | second LSPR peak redshift (150 mM NaCl) [3] | Substance | Kd [4] | Kd [5] |
| --- | --- | --- | --- | --- | --- |
| 6.2 nm | 3.2 nm | 1 nm | nuclear receptor coactivator binding domain of the CREB-binding protein (from UniProt Q92793 1-2442) (domain or fragment) |  |  |
|  |  |  | PEX5 1-113 (from UniProt P50542) | 87 nM | 157 nM |
|  |  |  | PEX5 W4 motif W4 (from UniProt P50542) |  | 6300 nM |
